Reference: the supplement of paper PMC11136658

Tested on: peptide library, one residue held at a place counted from the Y acceptor
Assay: relative phosphorylation of the sub-library (ratio to the mean residue at this position); higher = residue favoured
Summary of the method: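 Purified recombinant kinases were given 50 μM ATP with γ-32P-ATP and biotinylated Tyr-centred peptide library mixtures for 90 min in 384-well plates. Peptides bound to streptavidin membranes were rinsed and quantified by phosphorimaging, and intensities were normalized per position by the sum of the 18 randomized residues (16 with the Ser/Thr-free library) and multiplied by that number. The reported values are phosphorylation relative to the mean randomized residue.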

Chain of EPHA1, construct: aa568-end, human (P21709 568-976, looked up): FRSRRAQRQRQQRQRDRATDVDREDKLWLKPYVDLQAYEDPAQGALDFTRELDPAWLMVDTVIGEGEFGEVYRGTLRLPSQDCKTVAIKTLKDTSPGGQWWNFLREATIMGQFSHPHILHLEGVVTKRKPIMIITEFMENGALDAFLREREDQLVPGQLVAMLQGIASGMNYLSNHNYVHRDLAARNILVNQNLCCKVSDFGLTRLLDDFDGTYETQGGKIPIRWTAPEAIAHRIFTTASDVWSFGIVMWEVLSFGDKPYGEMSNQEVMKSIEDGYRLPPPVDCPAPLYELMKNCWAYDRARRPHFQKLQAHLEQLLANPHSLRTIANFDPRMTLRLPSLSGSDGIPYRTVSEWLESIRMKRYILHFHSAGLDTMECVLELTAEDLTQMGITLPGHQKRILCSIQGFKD
Chain of EPHA4, construct: aa610-887, human (P54764 610-887, looked up): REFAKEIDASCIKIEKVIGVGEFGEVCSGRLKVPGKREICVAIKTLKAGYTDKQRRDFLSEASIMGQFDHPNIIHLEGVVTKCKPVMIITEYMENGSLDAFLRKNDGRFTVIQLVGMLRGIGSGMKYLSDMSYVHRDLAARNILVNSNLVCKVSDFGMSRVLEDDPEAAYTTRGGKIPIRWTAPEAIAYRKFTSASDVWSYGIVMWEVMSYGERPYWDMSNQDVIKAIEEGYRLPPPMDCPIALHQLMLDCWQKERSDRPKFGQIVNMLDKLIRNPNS
Chain of EPHA2, construct: aa561-end, human (P29317 561-976, looked up): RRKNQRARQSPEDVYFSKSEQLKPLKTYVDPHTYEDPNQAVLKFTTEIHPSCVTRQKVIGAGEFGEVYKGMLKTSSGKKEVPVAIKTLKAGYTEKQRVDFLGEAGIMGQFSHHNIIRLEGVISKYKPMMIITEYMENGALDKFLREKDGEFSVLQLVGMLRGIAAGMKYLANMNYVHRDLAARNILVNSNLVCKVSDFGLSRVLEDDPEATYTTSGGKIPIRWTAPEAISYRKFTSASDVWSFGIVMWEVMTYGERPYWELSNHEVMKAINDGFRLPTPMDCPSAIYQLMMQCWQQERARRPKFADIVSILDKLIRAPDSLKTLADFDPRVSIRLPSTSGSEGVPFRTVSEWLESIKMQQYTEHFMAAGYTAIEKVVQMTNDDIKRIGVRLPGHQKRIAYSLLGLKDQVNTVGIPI
Chain of EPHA3, construct: aa571-end, human (P29320 571-983, looked up): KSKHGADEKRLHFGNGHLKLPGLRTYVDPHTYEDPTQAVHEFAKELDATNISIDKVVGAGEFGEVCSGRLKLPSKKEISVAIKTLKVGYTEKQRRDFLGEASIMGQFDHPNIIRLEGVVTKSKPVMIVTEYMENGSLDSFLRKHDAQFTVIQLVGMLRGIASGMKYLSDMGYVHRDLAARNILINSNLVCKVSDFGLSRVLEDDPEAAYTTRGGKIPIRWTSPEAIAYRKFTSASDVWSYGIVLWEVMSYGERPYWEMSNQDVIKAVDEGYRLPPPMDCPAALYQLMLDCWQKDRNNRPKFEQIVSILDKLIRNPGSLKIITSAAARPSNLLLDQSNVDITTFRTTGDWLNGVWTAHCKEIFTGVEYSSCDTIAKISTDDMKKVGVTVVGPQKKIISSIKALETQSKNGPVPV

EPHA1, construct: aa568-end, human (from UniProt P21709)
relative phosphorylation
Details	at +1	at +2	at +3	at +4	at +5	at -1	at -2	at -3	at -4	at -5
A fixed	1.63	0.704	0.7	0.747	1.08	0.615	1.22	0.904	1.25	1.1
D fixed	0.645	0.963	0.21	0.562	0.699	0.705	0.891	1.06	0.864	0.752
E fixed	1.87	1.03	0.191	0.665	0.616	0.52	1.04	1.18	1.11	0.59
F fixed	0.853	1.68	1.4	1.27	1.17	1.37	0.531	1.16	0.936	1.1
G fixed	0.729	0.307	0.486	1.21	1.21	0.23	1.38	1.07	1.47	1.26
H fixed	0.604	0.912	0.877	1.38	0.987	0.87	1.03	1.18	0.919	0.917
I fixed	1.41	0.997	2.57	0.732	0.92	2.74	0.716	0.784	0.853	0.941
K fixed	0.292	0.642	0.319	0.931	1.12	0.381	1	0.801	0.993	1.12
L fixed	1.15	1.18	2.29	0.816	0.955	2.38	0.789	0.803	1	1.07
M fixed	1.88	1.21	1.5	1.26	0.966	1.11	0.633	0.926	0.948	0.968
N fixed	0.276	1.17	0.385	0.726	0.773	1	1.11	1.16	0.852	0.937
P fixed	0.157	0.521	1.26	1.19	1.57	0.445	1.29	0.929	1.13	1.17
Q fixed	1.11	0.792	0.679	0.86	0.807	0.433	1.05	0.77	0.95	0.914
R fixed	0.477	1.06	0.696	1.47	1.13	0.587	1.36	1.07	1.23	1.26
S fixed	0.799	0.697	0.488	0.739	1	0.391	1.46	1.03	0.868	0.86
T fixed	0.823	0.867	0.576	0.813	0.9	1.19	0.845	0.917	0.666	0.725
V fixed	1.93	0.974	2.03	0.73	0.853	1.43	0.821	0.78	0.827	0.913
W fixed	1.36	2.3	1.36	1.89	1.24	1.61	0.821	1.48	1.14	1.4
pThr fixed	0.981	1.05	0.17	0.4	0.508	1.39	0.685	0.721	0.608	0.558
pTyr fixed	1.87	2.54	0.57	0.629	0.727	0.904	0.81	0.888	0.88	0.684

EPHA2, construct: aa561-end, human (from UniProt P29317)
relative phosphorylation
Details	at +1	at +2	at +3	at +4	at +5	at -1	at -2	at -3	at -4	at -5
A fixed	1.31	0.627	0.592	0.785	0.992	0.392	1.11	0.791	1.04	0.971
D fixed	0.849	1.83	0.379	0.913	1.26	3.48	1.25	1.54	1.25	1.23
E fixed	2.74	2.13	0.34	1.28	1.22	2.02	1.74	1.76	1.41	1.03
F fixed	0.725	1.35	1.4	1.13	1.1	0.943	0.617	1.32	1.09	1.12
G fixed	0.517	0.298	0.508	1.15	1.15	0.198	1.22	0.847	1.26	1.15
H fixed	1.65	0.815	0.725	1.29	0.993	0.836	0.817	1.06	0.843	0.916
I fixed	1.84	1.08	3.27	0.777	0.778	1.92	0.914	0.914	0.999	1.04
K fixed	0.165	0.339	0.183	0.567	0.616	0.17	0.657	0.502	0.737	0.873
L fixed	0.892	0.944	1.84	0.662	0.877	1.83	0.82	0.873	1.05	1.05
M fixed	1.62	0.988	1.64	0.989	0.87	0.733	0.654	0.809	0.986	0.978
N fixed	0.322	1.07	0.395	0.718	0.8	1.83	1.3	1.07	0.802	1.06
P fixed	0.15	0.54	1.33	1.52	1.67	0.257	1.24	1.08	1.07	0.972
Q fixed	0.852	0.723	0.628	0.844	0.773	0.351	1.01	0.774	1.05	0.986
R fixed	0.18	0.481	0.262	0.692	0.613	0.219	0.832	0.607	0.871	0.92
S fixed	0.61	0.691	0.426	1.02	1.02	0.366	1.39	0.923	0.815	0.835
T fixed	0.783	0.816	0.621	0.886	1.22	0.931	1	0.903	0.79	0.827
V fixed	1.81	1.05	2.07	0.759	0.827	0.974	0.838	0.888	0.802	0.9
W fixed	0.979	2.23	1.4	2.02	1.21	0.554	0.61	1.34	1.12	1.15
pThr fixed	2.09	2.85	0.454	1.09	0.852	3.53	0.956	0.833	1.22	1.26
pTyr fixed	3.93	7.03	1.08	1.44	1.31	4.75	1.15	1.43	1.54	1.4

EPHA3, construct: aa571-end, human (from UniProt P29320)
relative phosphorylation
Details	at +1	at +2	at +3	at +4	at +5	at -1	at -2	at -3	at -4	at -5
A fixed	1.63	0.63	0.711	0.794	1.05	0.536	1.11	0.827	1.03	0.924
D fixed	1.1	1.73	0.574	1.03	1.04	2.68	1.16	1.07	1.06	0.949
E fixed	1.89	1.71	0.544	1.06	0.941	1.19	1.04	1.17	1.05	0.848
F fixed	0.91	1.44	1.4	1.16	1.42	0.997	0.863	1.32	1.3	1.15
G fixed	0.902	0.424	0.526	1.14	0.981	0.389	1.04	0.853	1.01	1.02
H fixed	0.53	0.717	0.69	0.998	0.756	0.534	0.804	0.959	0.859	0.996
I fixed	1.18	1.02	2.34	0.801	0.925	1.83	0.939	1.11	0.974	0.999
K fixed	0.407	0.47	0.403	0.685	0.653	0.382	0.899	0.674	0.918	1.01
L fixed	0.982	0.908	1.62	0.754	1.19	1.75	1.13	0.995	1.34	1.11
M fixed	1.17	0.915	0.989	0.951	0.885	0.827	0.747	0.976	0.837	0.891
N fixed	0.556	1.05	0.514	0.809	0.774	2.18	0.942	1.06	0.817	1.03
P fixed	0.353	0.567	1.42	1.25	1.52	0.44	1.15	1.02	1.06	1.09
Q fixed	1.28	0.789	0.775	0.997	0.8	0.567	1.25	0.894	1.09	1.02
R fixed	0.473	0.601	0.505	0.809	0.648	0.411	0.842	0.806	0.847	0.982
S fixed	0.811	0.685	0.63	0.877	1.06	0.525	1.28	0.902	0.785	0.836
T fixed	0.694	0.742	0.589	0.866	0.841	0.867	0.805	0.885	0.653	0.774
V fixed	1.59	0.905	1.85	0.779	1.04	1.04	1.04	0.994	0.903	0.836
W fixed	1.54	2.7	1.92	2.23	1.47	0.849	0.966	1.48	1.48	1.53
pThr fixed	1.53	2.12	0.736	1.05	0.946	1.88	1.04	0.915	0.851	0.854
pTyr fixed	1.9	7.49	1.44	1.89	1.07	2.88	1.1	1.22	1.13	1.15

EPHA4, construct: aa610-887, human (from UniProt P54764)
relative phosphorylation
Details	at +1	at +2	at +3	at +4	at +5	at -1	at -2	at -3	at -4	at -5
A fixed	1.32	0.737	0.831	0.822	0.978	0.712	1.1	0.763	1.03	1.01
D fixed	1.31	2.05	0.748	1.15	1.18	2.37	1.27	1.2	1.28	1.11
E fixed	3.45	2.28	0.728	1.52	1.29	1.52	1.41	1.34	1.23	1.02
F fixed	0.73	1.14	1.22	0.976	1.25	0.885	0.778	1.24	1.16	1.08
G fixed	0.817	0.564	0.695	0.991	1.1	0.533	0.929	0.804	1.11	1.02
H fixed	0.631	0.779	0.833	1.07	0.933	0.672	0.865	0.873	0.867	0.959
I fixed	0.966	0.952	2.01	0.831	0.904	1.72	0.931	1.12	0.962	0.981
K fixed	0.473	0.527	0.525	0.679	0.67	0.513	0.825	0.594	0.836	0.965
L fixed	0.782	0.829	1.35	0.859	1.01	1.45	1.06	0.976	1.01	1.03
M fixed	1.06	0.86	1.13	0.923	0.938	0.802	0.777	0.851	0.902	1.01
N fixed	0.6	1.09	0.694	0.883	0.901	1.57	1.05	0.901	0.896	1
P fixed	0.509	0.757	1.5	1.25	1.44	0.641	1.42	0.94	1.12	1.05
Q fixed	1.02	0.797	0.708	0.909	0.82	0.638	1.07	0.753	1.04	0.95
R fixed	0.505	0.624	0.588	0.764	0.727	0.555	0.849	0.649	0.834	0.98
S fixed	0.757	0.756	0.685	0.897	0.945	0.689	1.1	0.851	0.919	0.921
T fixed	0.74	0.785	0.733	0.881	0.922	0.935	0.834	1.87	0.815	0.854
V fixed	1.38	0.997	1.59	0.84	0.879	1.08	0.95	0.959	0.861	0.918
W fixed	0.948	1.48	1.45	1.76	1.12	0.718	0.79	1.31	1.13	1.14
pThr fixed	1.73	2.97	0.917	1.23	1.13	2.06	1.1	0.813	0.997	0.912
pTyr fixed	1.87	8.24	1.28	1.75	1.33	2.22	1.09	1.01	1.09	1.07
